Experimental data reported in US20030036091A1.

Tests used:
[1] = target: Helicobacter pylori LuxS (Helicobacter pylori); test: X-ray crystal structure, homodimer interface
[2] = target: Haemophilus influenzae LuxS (Haemophilus influenzae); test: X-ray crystal structure, homodimer interface
[3] = target: Deinococcus radiodurans LuxS (Deinococcus radiodurans); test: X-ray crystal structure, P21 form, homodimer interface
[4] = target: Deinococcus radiodurans LuxS (Deinococcus radiodurans); test: X-ray crystal structure, C2 form, crystallographic dimer interface

**Q.** For Helicobacter pylori LuxS (enzyme), which surface area buried through this interaction [1] is on record?
**A.** The surface area buried through this interaction was 4180 Å^2.

**Q.** Haemophilus influenzae LuxS (enzyme) was tested. Which surface area buried through this interaction [2] did it give?
**A.** Its surface area buried through this interaction is 4160 Å^2.

**Q.** Which results are given for Deinococcus radiodurans LuxS (enzyme)?
**A.** surface area buried through this interaction [3]: 3930 Å^2; surface area buried through this interaction [4]: 3200 Å^2
